± gives the standard error. For some assays here: Fewer inactive variants are shown than the library holds.
B1: glmS ribozyme (parent)
chain: AUAAAAGCGCCAGAACUACAGAAAUGUAGUUGACGAGGAGGAGGUUUAUCGAAUUUUCGGCGGAUGCCUCCAAA

What was measured:
Conditions in all cases: with glucosamine-6-phosphate
[1] = variants of: B1; assay: kcat; higher = faster cleavage; RNA array
Method in brief: (§1)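 Glucosamine-6-phosphate, from 40 μM to 10 mM in HEPES/KCl/Mg(OAc)2 buffer, was flowed over sequenced MiSeq chips carrying barcoded ribozyme variants transcribed in situ by E. coli RNA polymerase. A hybridised Cy3 probe tracked the variants at 37 °C as tiles were imaged over ~14 h. kobs, kcat and KM were obtained by fitting normalised per-tile medians to exponential decays and then applying weighted Michaelis–Menten fits across concentrations.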

[2] = variants of: B1; assay: KM; higher = weaker cofactor use; RNA array
Method in brief: as §1

[3] = variants of: B1; assay: self-cleavage kobs at 40 uM GlcN6P; higher = faster cleavage; RNA array
Method in brief: as §1

[4] = variants of: B1; assay: self-cleavage kobs at 10000 uM GlcN6P; higher = faster cleavage; RNA array
Method in brief: as §1

[5] = variants of: B1; assay: self-cleavage kobs at 640 uM GlcN6P; higher = faster cleavage; RNA array
Method in brief: as §1

[6] = variants of: B1; assay: self-cleavage kobs at 2500 uM GlcN6P; higher = faster cleavage; RNA array
Method in brief: as §1

[7] = variants of: B1; assay: self-cleavage kobs at 160 uM GlcN6P; higher = faster cleavage; RNA array
Method in brief: as §1

U54A C61U
kcat [1]: 3.19e-05 ± 4.4e-07 s⁻¹
KM [2]: 1620 ± 86 µM
self-cleavage kobs at 40 uM GlcN6P [3]: < 1e-05 s⁻¹
self-cleavage kobs at 10000 uM GlcN6P [4]: 2.74e-05 ± 1e-05 s⁻¹

G60A U69G
kcat [1]: 1.18e-05 ± 5e-06 s⁻¹

U57A C71G
kcat [1]: 5.3e-05 ± 1.6e-05 s⁻¹

U55G G66C
kcat [1]: 0.000625 ± 0.00013 s⁻¹
self-cleavage kobs at 640 uM GlcN6P [5]: 0.000216 ± 4.5e-05 s⁻¹
self-cleavage kobs at 2500 uM GlcN6P [6]: 0.000325 ± 7e-05 s⁻¹
self-cleavage kobs at 10000 uM GlcN6P [4]: 0.000624 ± 0.0001 s⁻¹

G59U C70A
kcat [1]: 1.64e-05 ± 5.5e-06 s⁻¹

A53U U57A
kcat [1]: 0.000262 ± 3e-05 s⁻¹
KM [2]: 2870 ± 600 µM
self-cleavage kobs at 640 uM GlcN6P [5]: 5.19e-05 ± 8e-06 s⁻¹
self-cleavage kobs at 2500 uM GlcN6P [6]: 0.000113 ± 1.4e-05 s⁻¹
self-cleavage kobs at 10000 uM GlcN6P [4]: 0.000215 ± 3e-05 s⁻¹

G59U C68A
kcat [1]: 2.28e-05 ± 4.9e-06 s⁻¹

G59A U69G
kcat [1]: 1.93e-05 ± 4.9e-06 s⁻¹

U56A A64G
kcat [1]: 0.0109 ± 0.0032 s⁻¹
KM [2]: 1640 ± 680 µM
self-cleavage kobs at 40 uM GlcN6P [3]: 0.00036 ± 5.4e-05 s⁻¹
self-cleavage kobs at 160 uM GlcN6P [7]: 0.000983 ± 0.00014 s⁻¹
self-cleavage kobs at 640 uM GlcN6P [5]: 0.0025 ± 0.00037 s⁻¹
self-cleavage kobs at 2500 uM GlcN6P [6]: 0.00654 ± 0.00084 s⁻¹
self-cleavage kobs at 10000 uM GlcN6P [4]: 0.0123 ± 0.0025 s⁻¹

U57G U69A
kcat [1]: 3.67e-05 ± 1.4e-05 s⁻¹
self-cleavage kobs at 640 uM GlcN6P [5]: 5.54e-05 ± 2.1e-05 s⁻¹

C58G G62U C70U
kcat [1]: 2.66e-05 ± 1.1e-05 s⁻¹
self-cleavage kobs at 640 uM GlcN6P [5]: 4.86e-05 ± 2.1e-05 s⁻¹

U56C U65A
kcat [1]: 0.0012 ± 0.00021 s⁻¹
KM [2]: 7470 ± 2000 µM
self-cleavage kobs at 160 uM GlcN6P [7]: 2.29e-05 ± 1.1e-05 s⁻¹
self-cleavage kobs at 640 uM GlcN6P [5]: 0.000115 ± 2.5e-05 s⁻¹
self-cleavage kobs at 2500 uM GlcN6P [6]: 0.000269 ± 5.1e-05 s⁻¹
self-cleavage kobs at 10000 uM GlcN6P [4]: 0.000702 ± 8.3e-05 s⁻¹

U56C U65G
kcat [1]: 0.000503 ± 9.7e-05 s⁻¹
self-cleavage kobs at 2500 uM GlcN6P [6]: 0.000206 ± 7.7e-05 s⁻¹
self-cleavage kobs at 10000 uM GlcN6P [4]: 0.00041 ± 8.6e-05 s⁻¹

U57G C68U
kcat [1]: 3.41e-05 ± 1.5e-05 s⁻¹
self-cleavage kobs at 40 uM GlcN6P [3]: < 1e-05 s⁻¹
self-cleavage kobs at 640 uM GlcN6P [5]: 3.46e-05 ± 1.4e-05 s⁻¹
self-cleavage kobs at 2500 uM GlcN6P [6]: 6.22e-05 ± 1.2e-05 s⁻¹
self-cleavage kobs at 10000 uM GlcN6P [4]: 1.92e-05 ± 8.6e-06 s⁻¹

U55A G66U
kcat [1]: 0.00223 ± 0.00093 s⁻¹
self-cleavage kobs at 40 uM GlcN6P [3]: 7.9e-05 ± 1.3e-05 s⁻¹
self-cleavage kobs at 160 uM GlcN6P [7]: 0.000202 ± 5.4e-05 s⁻¹
self-cleavage kobs at 640 uM GlcN6P [5]: 0.000355 ± 7.1e-05 s⁻¹
self-cleavage kobs at 2500 uM GlcN6P [6]: 0.00136 ± 0.00021 s⁻¹
self-cleavage kobs at 10000 uM GlcN6P [4]: 0.00195 ± 0.00029 s⁻¹

C58U C71G
kcat [1]: < 1e-05 s⁻¹

C58U C71A
kcat [1]: 7.75e-05 ± 1.6e-05 s⁻¹
self-cleavage kobs at 10000 uM GlcN6P [4]: 2.61e-05 ± 1.2e-05 s⁻¹

C58G C67A
kcat [1]: 4.68e-05 ± 7.6e-06 s⁻¹
self-cleavage kobs at 640 uM GlcN6P [5]: 6.09e-05 ± 1.3e-05 s⁻¹
self-cleavage kobs at 2500 uM GlcN6P [6]: 4.7e-05 ± 1.4e-05 s⁻¹
self-cleavage kobs at 10000 uM GlcN6P [4]: 3.78e-05 ± 1e-05 s⁻¹

A53U U54A
kcat [1]: 0.0314 ± 0.0026 s⁻¹
KM [2]: 1760 ± 180 µM
self-cleavage kobs at 40 uM GlcN6P [3]: 0.000727 ± 0.00011 s⁻¹
self-cleavage kobs at 160 uM GlcN6P [7]: 0.00236 ± 0.00084 s⁻¹
self-cleavage kobs at 640 uM GlcN6P [5]: 0.00817 ± 0.0019 s⁻¹
self-cleavage kobs at 2500 uM GlcN6P [6]: 0.0161 ± 0.0071 s⁻¹
self-cleavage kobs at 10000 uM GlcN6P [4]: 0.0279 ± 0.0062 s⁻¹

A53U U54G
kcat [1]: 0.0452 ± 0.016 s⁻¹
KM [2]: 3780 ± 1600 µM
self-cleavage kobs at 40 uM GlcN6P [3]: 0.000521 ± 4.8e-05 s⁻¹
self-cleavage kobs at 640 uM GlcN6P [5]: 0.00468 ± 0.001 s⁻¹
self-cleavage kobs at 2500 uM GlcN6P [6]: 0.0161 ± 0.0061 s⁻¹
self-cleavage kobs at 10000 uM GlcN6P [4]: 0.0354 ± 0.0056 s⁻¹

G59A C71G
kcat [1]: < 1e-05 s⁻¹
self-cleavage kobs at 40 uM GlcN6P [3]: < 1e-05 s⁻¹

G59A C71A
kcat [1]: < 1e-05 s⁻¹
self-cleavage kobs at 40 uM GlcN6P [3]: < 1e-05 s⁻¹

C58A G66U
kcat [1]: 5.19e-05 ± 5.8e-06 s⁻¹
self-cleavage kobs at 10000 uM GlcN6P [4]: 4.3e-05 ± 5.6e-06 s⁻¹

U57G C71G
kcat [1]: 2.02e-05 ± 3.8e-06 s⁻¹

U56C C58U
kcat [1]: 6.39e-05 ± 2.4e-06 s⁻¹
KM [2]: 4240 ± 440 µM
self-cleavage kobs at 2500 uM GlcN6P [6]: 2.41e-05 ± 1.1e-05 s⁻¹
self-cleavage kobs at 10000 uM GlcN6P [4]: 4.48e-05 ± 8.5e-06 s⁻¹

U56C C58G
kcat [1]: 2.76e-05 ± 8.3e-06 s⁻¹

U56C C58A
kcat [1]: 0.000232 ± 6.7e-05 s⁻¹
self-cleavage kobs at 640 uM GlcN6P [5]: 3.8e-05 ± 1.6e-05 s⁻¹
self-cleavage kobs at 2500 uM GlcN6P [6]: 5.91e-05 ± 1.6e-05 s⁻¹
self-cleavage kobs at 10000 uM GlcN6P [4]: 0.000146 ± 1.9e-05 s⁻¹

C58G G66C
kcat [1]: 2.6e-05 ± 1.4e-06 s⁻¹
KM [2]: 2200 ± 540 µM
self-cleavage kobs at 640 uM GlcN6P [5]: < 1e-05 s⁻¹

C58G G66A
kcat [1]: 5.59e-05 ± 5.7e-06 s⁻¹
self-cleavage kobs at 2500 uM GlcN6P [6]: 5.32e-05 ± 1.5e-05 s⁻¹
self-cleavage kobs at 10000 uM GlcN6P [4]: 5.1e-05 ± 7.9e-06 s⁻¹

A53G U65G
kcat [1]: 0.00217 ± 0.00093 s⁻¹
self-cleavage kobs at 40 uM GlcN6P [3]: 9.01e-05 ± 2.5e-05 s⁻¹
self-cleavage kobs at 160 uM GlcN6P [7]: 0.000202 ± 4e-05 s⁻¹
self-cleavage kobs at 640 uM GlcN6P [5]: 0.000884 ± 0.00018 s⁻¹
self-cleavage kobs at 2500 uM GlcN6P [6]: 0.00134 ± 0.00033 s⁻¹

U57C C71G
kcat [1]: 1.18e-05 ± 1.2e-06 s⁻¹
self-cleavage kobs at 40 uM GlcN6P [3]: < 1e-05 s⁻¹

U57C C71U
kcat [1]: 0.000136 ± 1.9e-05 s⁻¹
self-cleavage kobs at 40 uM GlcN6P [3]: < 1e-05 s⁻¹
self-cleavage kobs at 640 uM GlcN6P [5]: 9.57e-05 ± 1.9e-05 s⁻¹
self-cleavage kobs at 2500 uM GlcN6P [6]: 8.71e-05 ± 2.6e-05 s⁻¹
self-cleavage kobs at 10000 uM GlcN6P [4]: 0.000139 ± 1.6e-05 s⁻¹

U55C G66A
kcat [1]: 0.0117 ± 0.003 s⁻¹
KM [2]: 1240 ± 450 µM
self-cleavage kobs at 40 uM GlcN6P [3]: 0.0004 ± 6.8e-05 s⁻¹
self-cleavage kobs at 160 uM GlcN6P [7]: 0.00128 ± 0.0002 s⁻¹
self-cleavage kobs at 640 uM GlcN6P [5]: 0.0034 ± 0.00061 s⁻¹
self-cleavage kobs at 2500 uM GlcN6P [6]: 0.0116 ± 0.0017 s⁻¹
self-cleavage kobs at 10000 uM GlcN6P [4]: 0.00884 ± 0.0018 s⁻¹

U57A C61A
kcat [1]: 1.53e-05 ± 5.7e-06 s⁻¹

U54C C68G
kcat [1]: 8.49e-05 ± 1.1e-05 s⁻¹
self-cleavage kobs at 640 uM GlcN6P [5]: 4.44e-05 ± 1e-05 s⁻¹
self-cleavage kobs at 2500 uM GlcN6P [6]: 9.2e-05 ± 1.4e-05 s⁻¹
self-cleavage kobs at 10000 uM GlcN6P [4]: 7.49e-05 ± 1e-05 s⁻¹

U54G G60U
kcat [1]: < 1e-05 s⁻¹

A53U U55G A64C
kcat [1]: 9.81e-05 ± 5.1e-06 s⁻¹
KM [2]: 3420 ± 520 µM
self-cleavage kobs at 2500 uM GlcN6P [6]: 4.12e-05 ± 1.6e-05 s⁻¹
self-cleavage kobs at 10000 uM GlcN6P [4]: 7.31e-05 ± 1.4e-05 s⁻¹

U57G G62U
kcat [1]: < 1e-05 s⁻¹
self-cleavage kobs at 40 uM GlcN6P [3]: < 1e-05 s⁻¹
self-cleavage kobs at 2500 uM GlcN6P [6]: < 1e-05 s⁻¹

U54G C70G
kcat [1]: 0.000119 ± 2.1e-05 s⁻¹
self-cleavage kobs at 40 uM GlcN6P [3]: 8.74e-05 ± 8.1e-06 s⁻¹
self-cleavage kobs at 160 uM GlcN6P [7]: 0.000128 ± 1.7e-05 s⁻¹
self-cleavage kobs at 640 uM GlcN6P [5]: 0.000182 ± 2.2e-05 s⁻¹
self-cleavage kobs at 2500 uM GlcN6P [6]: 0.000182 ± 2.5e-05 s⁻¹
self-cleavage kobs at 10000 uM GlcN6P [4]: 9.76e-05 ± 9.2e-06 s⁻¹

U57G C68A C70U
kcat [1]: 3.59e-05 ± 1.7e-05 s⁻¹
self-cleavage kobs at 640 uM GlcN6P [5]: 5.38e-05 ± 1.8e-05 s⁻¹

U54C U69G
kcat [1]: 6.89e-05 ± 7.2e-06 s⁻¹
self-cleavage kobs at 160 uM GlcN6P [7]: 3.54e-05 ± 1.6e-05 s⁻¹
self-cleavage kobs at 640 uM GlcN6P [5]: 5.03e-05 ± 1.1e-05 s⁻¹
self-cleavage kobs at 2500 uM GlcN6P [6]: 7.28e-05 ± 1.1e-05 s⁻¹
self-cleavage kobs at 10000 uM GlcN6P [4]: 5.47e-05 ± 1.8e-05 s⁻¹

U56G C61U
kcat [1]: < 1e-05 s⁻¹
self-cleavage kobs at 40 uM GlcN6P [3]: < 1e-05 s⁻¹

G59C U69G
kcat [1]: 1.85e-05 ± 5.2e-06 s⁻¹
self-cleavage kobs at 40 uM GlcN6P [3]: < 1e-05 s⁻¹
